To fix the notation:
B1: Docking protein 3 (Homo sapiens), Q7L591 (parent)
chain: MTRGARLRSDARAQLNQLSLDGGTGSGQKGKCEEFPSSLSSVSPGLEAAALLLAVTMDPLETPIKDGILYQQHVKFGKKCWRKVWALLYAGGPSGVARLESWEVRDGGLGAAGDRSAGPGRRGERRVIRLADCVSVLPADGESCPRDTGAFLLTTTERSHLLAAQHRQAWMGPICQLAFPGTGEASSGSTDAQSPKRGLVPMEENSIYSSWQEVGEFPVVVQRTEAATRCQLKGPALLVLGPDAIQLREAKGTQALYSWPYHFLRKFGSDKGVFSFEAGRRCHSGEGLFAFSTPCAPDLCRAVAGAIARQRERLPELTRPQPCPLPRATSLPSLDTPGELREMPPGPEPPTSRKMHLAEPGPQSLPLLLGPEPNDLASGLYASVCKRASGPPGNEHLYENLCVLEASPTLHGGEPEPHEGPGSRSPTTSPIYHNGQDLSWPGPANDSTLEAQYRRLLELDQVEGTGRPDPQAGFKAKLVTLLSRERRKGPAPCDRP
B2: Ligand of Numb protein X 2 (Homo sapiens), Q8N448 (parent)
chain: MGTTSDEMVSVEQTSSSSLNPLCFECGQQHWTRENHLYNYQNEVDDDLVCHICLQPLLQPLDTPCGHTFCYKCLRNFLQEKDFCPLDRKRLHFKLCKKSSILVHKLLDKLLVLCPFSSVCKDVMQRCDLEAHLKNRCPGASHRRVALERRKTSRTQAEIENENGPTLLDPAGTLSPEADCLGTGAVPVERHLTSASLSTWSEEPGLDNPAFEESAGADTTQQPLSLPEGEITTIEIHRSNPYIQLGISIVGGNETPLINIVIQEVYRDGVIARDGRLLAGDQILQVNNYNISNVSHNYARAVLSQPCNTLHLTVLRERRFGNRAHNHSDSNSPREEIFQVALHKRDSGEQLGIKLVRRTDEPGVFILDLLEGGLAAQDGRLSSNDRVLAINGHDLKYGTPELAAQIIQASGERVNLTIARPGKPQPGNTIREAGNHSSSSQHHTPPPYYSRPSSHKDLTQCVTCQEKHITVKKEPHESLGMTVAGGRGSKSGELPIFVTSVPPHGCLARDGRIKRGDVLLNINGIDLTNLSHSEAVAMLKASAASPAVALKALEVQIVEEATQNAEEQPSTFSENEYDASWSPSWVMWLGLPSTLHSCHDIVLRRSYLGSWGFSIVGGYEENHTNQPFFIKTIVLGTPAYYDGRLKCGDMIVAVNGLSTVGMSHSALVPMLKEQRNKVTLTVICWPGSLV
partner: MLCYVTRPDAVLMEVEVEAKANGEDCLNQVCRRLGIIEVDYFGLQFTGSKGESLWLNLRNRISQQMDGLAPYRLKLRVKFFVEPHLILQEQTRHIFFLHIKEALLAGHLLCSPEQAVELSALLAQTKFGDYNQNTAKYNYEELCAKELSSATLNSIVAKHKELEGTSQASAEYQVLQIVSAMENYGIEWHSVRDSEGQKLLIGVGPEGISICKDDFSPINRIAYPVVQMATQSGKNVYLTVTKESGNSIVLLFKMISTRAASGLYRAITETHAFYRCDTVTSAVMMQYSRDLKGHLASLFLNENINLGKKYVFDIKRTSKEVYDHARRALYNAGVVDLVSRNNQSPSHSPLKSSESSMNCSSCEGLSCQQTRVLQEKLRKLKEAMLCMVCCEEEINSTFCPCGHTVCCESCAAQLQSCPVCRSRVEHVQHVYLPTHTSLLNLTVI
B3: Proline-rich protein 14 (Homo sapiens), Q9BWN1 (parent)
chain: MDLPGDSSPPGQPRLCRQPLTRALWGARSPKRPRLQLPGAPSPLEKASRRVLAVVLEDVMAVHMVPVVPSKQTSIPQHHSYHQDPVHRQPPASPPRQAGWSSQARPPDPLCLCREPLSRIHRTSSTLRRRSRTTPGPEEGPSQKVDRAPQPTLVVMLEDIASPRPPAEGFIDETPNFIIPAQRAEPMRIVRQPTPPPGDLEPPFQPSALPADPLESPPTAPDPALELPSTPPPSSLLRPRLSPWGLAPLFRSVRSKLESFADIFLTPNKTPQPPPPSPPMKLELKIAISEAEQSGAAEGTASVSPRPPIRQWRTQDHNTPALLPKPSLGRSYSCPDLGPPGPGTCTWPPAPPQPSRPRPRRHTVGGGEMARAPPPPRPCLRKEVFPLGGVGASPSLTTSCSSTASTSFSEPAEPRLGSTKGKEPRASKDQVLSEPETKTMGKVSRFRIRRTPARPQLNLTPMGLPRPIRLNKKEFSLEEIYTNKNYQSPTTRRTFETIFEEPRERNGTLIFTSSRKLRRAVEFRDSSLPRSRRPSRGVRAAGGRTVPPNVAPSPDVGPLLQQRLEELDALLLEEETVDREQPHWT
B4: Cilium assembly protein DZIP1L (Homo sapiens), Q8IYY4 (parent)
chain: MQSPAATAEGLSGPLFGAYTFPTFKFQPRHDSMDWRRISTLDVDRVARELDVATLQENIAGITFCNLDREVCSRCGQPVDPALLKVLRLAQLIIEYLLHCQDCLSASVAQLEARLQTSLGQQQRGQQELGRQADELKGVREESRRRRKMISTLQQLLMQTGTHSYHTCHLCDKTFMNATFLRGHIQRRHAGVAEGGKQKKQEQPVEEVLEELRAKLKWTQGELEAQREAERQRQLQEAELIHQREIEAKKEFDKWKEQEWTKLYGEIDKLKKLFWDEFKNVAKQNSTLEEKLRALQSHSVMESKLGSLRDEESEEWLRQARELQALREKTEIQKTEWKRKVKELHEEHMAEKKELQEENQRLQASLSQDQKKAAAQSQCQISTLRAQLQEQARIIASQEEMIQSLSLRKVEGIHKVPKAVDTEEDSPEEEMEDSQDEQHKVLAALRRNPTLLKHFRPILEDTLEEKLESMGIRKDAKGISIQTLRHLESLLRVQREQKARKFSEFLSLRGKLVKEVTSRAKERQENGAVVSQPDGQPSVKSQQSTLVTREAQPKTRTLQVALPSTPAEPPPPTRQSHGSHGSSLTQVSAPAPRPGLHGPSSTPPSSGPGMSTPPFSSEEDSEGDRVQRVSLQPPKVPSRMVPRPKDDWDWSDTETSEENAQPPGQGSGTLVQSMVKNLEKQLEAPAKKPAGGVSLFFMPNAGPQRAATPGRKPQLSEDESDLEISSLEDLPLDLDQREKPKPLSRSKLPEKFGTGPQSSGQPRVPAW
B5: Embryonal Fyn-associated substrate (Homo sapiens), O43281 (parent)
chain: MAIATSTQLARALYDNTAESPQELSFRRGDVLRVLQREGAGGLDGWCLCSLHGQQGIVPANRVKLLPAGPAPKPSLSPASPAQPGSPYPAPDHSNEDQEVYVVPPPARPCPTSGPPAGPCPPSPDLIYKIPRASGTQLAAPRDALEVYDVPPTALRVPSSGPYDCPASFSHPLTRVAPQPPGEDDAPYDVPLTPKPPAELEPDLEWEGGREPGPPIYAAPSNLKRASALLNLYEAPEELLADGEGGGTDEGIYDVPLLGPEAPPSPEPPGALASHDQDTLAQLLARSPPPPHRPRLPSAESLSRRPLPALPVPEAPSPSPVPSPAPGRKGSIQDRPLPPPPPRLPGYGGPKVEGDPEGREMEDDPAGHHNEYEGIPMAEEYDYVHLKGMDKAQGSRPPDQACTGDPELPERGMPAPQEALSPGEPLVVSTGDLQLLYFYAGQCQSHYSALQAAVAALMSSTQANQPPRLFVPHSKRVVVAAHRLVFVGDTLGRLAASAPLRAQVRAAGTALGQALRATVLAVKGAALGYPSSPAIQEMVQCVTELAGQALQFTTLLTSLAP
partner: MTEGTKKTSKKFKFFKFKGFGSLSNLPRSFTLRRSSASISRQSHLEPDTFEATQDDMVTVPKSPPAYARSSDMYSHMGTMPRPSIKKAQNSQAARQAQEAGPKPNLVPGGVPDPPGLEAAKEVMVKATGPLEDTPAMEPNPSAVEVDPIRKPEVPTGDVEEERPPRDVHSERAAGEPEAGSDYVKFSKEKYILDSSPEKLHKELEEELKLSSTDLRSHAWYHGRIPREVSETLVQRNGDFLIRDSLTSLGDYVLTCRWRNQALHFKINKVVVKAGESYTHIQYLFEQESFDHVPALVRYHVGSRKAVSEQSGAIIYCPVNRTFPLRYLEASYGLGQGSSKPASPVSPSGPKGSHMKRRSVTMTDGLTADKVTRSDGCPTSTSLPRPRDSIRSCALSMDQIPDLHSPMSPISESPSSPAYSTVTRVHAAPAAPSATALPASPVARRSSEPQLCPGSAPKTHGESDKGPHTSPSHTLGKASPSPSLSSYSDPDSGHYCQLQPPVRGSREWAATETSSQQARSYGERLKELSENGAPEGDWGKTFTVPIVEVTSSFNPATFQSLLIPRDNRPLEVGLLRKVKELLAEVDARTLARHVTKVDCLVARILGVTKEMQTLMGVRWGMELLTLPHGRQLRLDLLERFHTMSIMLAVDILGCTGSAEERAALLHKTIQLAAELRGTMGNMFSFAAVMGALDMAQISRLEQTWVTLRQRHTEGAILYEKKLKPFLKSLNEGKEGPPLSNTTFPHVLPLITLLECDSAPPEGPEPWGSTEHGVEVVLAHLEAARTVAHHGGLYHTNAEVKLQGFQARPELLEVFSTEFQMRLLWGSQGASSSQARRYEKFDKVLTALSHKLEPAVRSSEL
B6: Protein LDOC1 (Homo sapiens), O95751 (parent)
chain: MVDELVLLLHALLMRHRALSIENSQLMEQLRLLVCERASLLRQVRPPSCPVPFPETFNGESSRLPEFIVQTASYMLVNENRFCNDAMKVAFLISLLTGEAEEWVVPYIEMDSPILGDYRAFLDEMKQCFGWDDDEDDDDEEEEDDY
partner: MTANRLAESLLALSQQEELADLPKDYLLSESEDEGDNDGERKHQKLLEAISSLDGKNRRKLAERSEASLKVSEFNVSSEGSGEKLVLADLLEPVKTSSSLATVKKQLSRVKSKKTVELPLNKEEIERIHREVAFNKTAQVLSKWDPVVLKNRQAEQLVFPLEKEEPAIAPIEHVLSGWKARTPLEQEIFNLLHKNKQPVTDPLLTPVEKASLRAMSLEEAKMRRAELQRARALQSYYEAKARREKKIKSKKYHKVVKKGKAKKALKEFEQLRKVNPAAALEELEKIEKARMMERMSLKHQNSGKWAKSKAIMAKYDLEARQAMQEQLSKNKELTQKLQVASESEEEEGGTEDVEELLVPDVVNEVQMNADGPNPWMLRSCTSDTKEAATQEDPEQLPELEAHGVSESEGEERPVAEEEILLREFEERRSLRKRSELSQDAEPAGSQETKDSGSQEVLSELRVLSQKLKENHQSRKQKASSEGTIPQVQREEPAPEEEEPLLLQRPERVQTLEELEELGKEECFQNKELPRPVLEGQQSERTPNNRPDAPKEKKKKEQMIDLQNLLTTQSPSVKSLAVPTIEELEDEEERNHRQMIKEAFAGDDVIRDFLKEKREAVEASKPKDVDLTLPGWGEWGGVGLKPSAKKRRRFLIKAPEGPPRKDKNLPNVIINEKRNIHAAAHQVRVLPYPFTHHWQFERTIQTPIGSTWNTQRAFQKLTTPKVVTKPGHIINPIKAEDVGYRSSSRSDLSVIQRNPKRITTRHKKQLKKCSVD
B7: Keratin, type I cuticular Ha3-II (Homo sapiens), Q14525 (parent)
chain: MPYNFCLPSLSCRTSCSSRPCVPPSCHGYTLPGACNIPANVSNCNWFCEGSFNGSEKETMQFLNDRLASYLEKVRQLERDNAELENLIRERSQQQEPLLCPSYQSYFKTIEELQQKILCSKSENARLVVQIDNAKLAADDFRTKYQTEQSLRQLVESDINSLRRILDELTLCRSDLEAQMESLKEELLSLKQNHEQEVNTLRCQLGDRLNVEVDAAPAVDLNQVLNETRNQYEALVETNRREVEQWFATQTEELNKQVVSSSEQLQSYQAEIIELRRTVNALEIELQAQHNLRYSLENTLTESEARYSSQLSQVQSLITNVESQLAEIRSDLERQNQEYQVLLDVRARLECEINTYRSLLESEDCKLPSNPCATTNACEKPIGSCVTNPCGPRSRCGPCNTFGY

Variants of B1 are the subject of one test. As to conditions: with traf1_human TRAF1, Q13077.
traf1_human TRAF1, Q13077, sequence (Q13077 whole entry): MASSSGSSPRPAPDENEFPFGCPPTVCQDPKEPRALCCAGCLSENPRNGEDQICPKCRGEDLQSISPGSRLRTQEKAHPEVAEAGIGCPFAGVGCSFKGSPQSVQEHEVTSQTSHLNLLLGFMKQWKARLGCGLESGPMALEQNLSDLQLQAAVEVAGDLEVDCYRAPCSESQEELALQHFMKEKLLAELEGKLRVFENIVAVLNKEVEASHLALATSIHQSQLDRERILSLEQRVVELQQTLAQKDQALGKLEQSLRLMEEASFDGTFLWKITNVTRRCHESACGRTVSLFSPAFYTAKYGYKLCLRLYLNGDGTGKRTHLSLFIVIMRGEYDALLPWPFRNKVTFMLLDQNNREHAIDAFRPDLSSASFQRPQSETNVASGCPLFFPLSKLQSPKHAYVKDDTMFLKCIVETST
For R229H, the “effect of a mutation on the interaction” value is recorded as “with no effect”.

Variants of B2 are the subject of a further test. As to conditions: with mylip_human MYLIP.
On to S198P, for which the “effect of a mutation on the interaction” value is recorded as “with no effect”.

The next test covers variants of B3. The note with it: with cbx5_human CBX5, P45973.
cbx5_human CBX5, P45973, sequence (P45973 whole entry): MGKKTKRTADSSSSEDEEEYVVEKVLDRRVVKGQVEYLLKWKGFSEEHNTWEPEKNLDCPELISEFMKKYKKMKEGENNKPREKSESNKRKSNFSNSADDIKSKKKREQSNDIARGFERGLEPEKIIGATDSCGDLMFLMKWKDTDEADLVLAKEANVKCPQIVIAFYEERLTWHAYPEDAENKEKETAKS
For the variant R114L, the “effect of a mutation on the interaction” value is listed as “with no effect”. Take P359L: the “effect of a mutation on the interaction” value is listed as “with no effect”.

The variants in a further test derive from B4. As to conditions: with cep76_human CEP76, Q8TAP6.
cep76_human CEP76, Q8TAP6, sequence (Q8TAP6 whole entry): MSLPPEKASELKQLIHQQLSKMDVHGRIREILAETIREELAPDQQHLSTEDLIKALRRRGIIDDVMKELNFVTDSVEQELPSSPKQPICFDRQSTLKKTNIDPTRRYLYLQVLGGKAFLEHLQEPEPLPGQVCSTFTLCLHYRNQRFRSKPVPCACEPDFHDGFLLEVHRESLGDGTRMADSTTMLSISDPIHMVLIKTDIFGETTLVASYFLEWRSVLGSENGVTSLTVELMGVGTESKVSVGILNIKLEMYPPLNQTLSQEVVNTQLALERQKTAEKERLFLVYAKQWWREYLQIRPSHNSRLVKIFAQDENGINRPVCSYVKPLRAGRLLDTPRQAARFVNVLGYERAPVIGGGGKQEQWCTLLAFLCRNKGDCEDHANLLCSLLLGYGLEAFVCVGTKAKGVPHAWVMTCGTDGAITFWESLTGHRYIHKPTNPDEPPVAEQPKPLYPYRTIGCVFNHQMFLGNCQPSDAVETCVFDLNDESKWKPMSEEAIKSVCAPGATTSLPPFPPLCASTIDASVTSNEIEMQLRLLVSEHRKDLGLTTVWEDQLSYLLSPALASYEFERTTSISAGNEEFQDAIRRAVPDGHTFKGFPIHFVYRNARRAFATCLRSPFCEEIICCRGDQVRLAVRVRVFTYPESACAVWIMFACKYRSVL
With G595E, the “effect of a mutation on the interaction” value is listed as “with no effect”. Consider R88C, for which the “effect of a mutation on the interaction” value was “with no effect”. Still for that read-out and setting: the same measure for R625H: “with no effect”.

The variants in a further test derive from B5. As to conditions: with sh2d3_human SH2D3C.
For the variant S265F, the “effect of a mutation on the interaction” value is on record as “with no effect”. Take A140D: the “effect of a mutation on the interaction” value was “with no effect”.

A further test covers variants of B6. The note with it: with ut14a_human UTP14A.
Regarding L12H, the “effect of a mutation on the interaction” value is reported as “with no effect”.

In the next test the parent is B7. As to conditions: with k2c4_human KRT4, P19013.
k2c4_human KRT4, P19013, sequence (P19013 whole entry): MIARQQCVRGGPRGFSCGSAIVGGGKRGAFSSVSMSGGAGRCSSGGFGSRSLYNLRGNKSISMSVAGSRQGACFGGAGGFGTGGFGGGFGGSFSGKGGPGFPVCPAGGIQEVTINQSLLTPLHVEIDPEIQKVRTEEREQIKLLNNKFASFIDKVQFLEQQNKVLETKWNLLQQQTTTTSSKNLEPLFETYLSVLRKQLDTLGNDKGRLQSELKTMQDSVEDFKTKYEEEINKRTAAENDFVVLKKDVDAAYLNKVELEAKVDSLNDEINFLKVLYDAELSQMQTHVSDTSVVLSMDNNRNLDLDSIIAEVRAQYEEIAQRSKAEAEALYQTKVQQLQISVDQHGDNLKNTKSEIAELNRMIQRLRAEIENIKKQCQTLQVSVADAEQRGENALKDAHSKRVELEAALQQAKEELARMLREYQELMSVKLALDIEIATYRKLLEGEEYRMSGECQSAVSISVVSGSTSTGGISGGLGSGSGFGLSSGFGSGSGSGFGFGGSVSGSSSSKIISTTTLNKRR
Turning to E85K, the “effect of a mutation on the interaction” value is given as “with no effect”.

Turning to R66H, the “effect of a mutation on the interaction” value is on record as “disrupting interaction strength”. On the same count and under the same terms, the value for I318V was “with no effect”.

Variants of B7 are the subject of a further test. As to conditions: with KRT79, Q5XKE5.
KRT79, Q5XKE5, sequence (Q5XKE5 whole entry): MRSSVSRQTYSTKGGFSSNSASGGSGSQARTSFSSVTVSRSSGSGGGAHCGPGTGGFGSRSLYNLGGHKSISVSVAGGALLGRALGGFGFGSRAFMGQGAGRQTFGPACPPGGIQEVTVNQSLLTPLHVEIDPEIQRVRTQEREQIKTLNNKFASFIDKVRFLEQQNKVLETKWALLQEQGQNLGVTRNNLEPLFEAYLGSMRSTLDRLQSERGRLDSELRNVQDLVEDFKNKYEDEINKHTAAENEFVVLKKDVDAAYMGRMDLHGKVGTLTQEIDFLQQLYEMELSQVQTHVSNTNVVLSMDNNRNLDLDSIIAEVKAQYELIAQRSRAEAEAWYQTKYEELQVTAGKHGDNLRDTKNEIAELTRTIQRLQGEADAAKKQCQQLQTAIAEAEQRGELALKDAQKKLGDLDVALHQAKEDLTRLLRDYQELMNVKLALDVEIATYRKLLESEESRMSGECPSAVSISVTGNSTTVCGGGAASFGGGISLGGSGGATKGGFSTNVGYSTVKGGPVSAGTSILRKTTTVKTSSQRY
On to Y294D, for which the “effect of a mutation on the interaction” value was “with no effect”.

The record behind these values is IntAct's records for PubMed 31515488.
